Blank lines part the entries; values can stand above or below the molecule they belong to.
Assays:
[1] = target: murine Cμ4tp domain, recombinant (mouse); experiment: SEC; analytical SE-HPLC, Superdex 200 Increase 10/300, PBS pH 7.4, 25 °C; 1 mg/mL Cµ4tp (DTT removed) and/or 0.5 mg/mL J chain (if not stated otherwise) incubated 24 h at room temperature
[2] = target: the molecule itself; experiment: cross-linking; disulfide mapping of recombinant JC by cross-linking MS: denatured, alkylated with iodoacetamide, trypsin and Asp-N, HPLC-MS/MS, Kojak with disulfide as crosslinker
[3] = target: murine Cμ4tp domain, recombinant (mouse); experiment: SEC; analytical SE-HPLC, Superdex 200 Increase 10/300, PBS pH 7.4, 25 °C; 1 mg/mL Cµ4tp (DTT removed) and/or 0.5 mg/mL J chain (if not stated otherwise) incubated 24 h at room temperature; remark: listed apart in the source
[4] = target: the molecule itself; experiment: nonreducing SDS-PAGE and western blot of covalent assemblies; HEK293/HEK293T co-transfected with H-Cµ234tp and JC variants, 48 h; RIPA lysates with 10 mM NEM and TCA-precipitated supernatants; Halo ligands, anti-JC, anti-µ

- stoichiometry N [1]: 2 chains
- stoichiometry N (Cµ4tp2 dimers) [1]: 6
Molecule: murine Cμ4tp domain, recombinant (domain or fragment)

- stoichiometry N (JC per (Cµ4tp2)5) [3]: 1
B1: murine Joining Chain wild type, recombinant (natural protein, mouse)
chain: MGDDEATILADNKCMCTRVTSRIIPSTEDPNEDIVERNIRIVVPLNNRENISDPTSPLRRNFVYHLSDVCKKCDPVEVELEDQVVTATQSNICNEDDGVPETCYMYDRNKCYTTMVPLRYHGETKMVQAALTPDSCYPD
notes: methionine added at position 1; murine joining chain (J chain), G22-D159 of the precursor; Heterogeneous native and non-native disulfides; largely unstructured by CD; also called JC; J chain
- binding result [2]: binds

B2: Halo-tagged truncated µs variant lacking the variable and first constant domains (H-Cµ234tp) (domain or fragment, UniProt P01872 106-454, looked up)
chain: VAEMNPNVNVFVPPRDGFSGPAPRKSKLICEATNFTPKPITVSWLKDGKLVESGFTTDPVTIENKGSTPQTYKVISTLTISEIDWLNLNVYTCRVDHRGLTFLKNVSSTCAASPSTDILTFTIPPSFADIFLSKSANLTCLVSNLATYETLNISWASQSGEPLETKIKIMESHPNGTFSAKGVASVCVEDWNNRKEFVCTVTHRDLPSPQKKFISKPNEVHKHPPAVYLLPPAREQLNLRESATVTCLVKGFSPADISVQWLQRGQLLPQEKYVTSAPMPEPGAPGFYFTHSILTVTEEEWNSGETYTCVVGHEALPHLVTERTVDKSTGKPTLYNVSLIMSDTGGTCY
notes: secretory Ig µ heavy chain without the variable and first constant domains: Cµ2, Cµ3, Cµ4 and the tailpiece; the gene carries a signal peptide; Detected with anti-mouse IgM (µ chain); also called Halo-Cµ234tp; H-Cµ234tp WT; source: HEK293/HEK293T or HeLa-ERp44KO, transfected, in lysate or supernatant
- stoichiometry N [4]: 6 H-Cµ234tp2 subunits (dimers)

— PMC11729874, “How J-chain ensures the assembly of immunoglobulin IgM pentamers” (The EMBO Journal, 2024)
